Measured values: PMC7153000, “Radiosynthesis, Biological Evaluation, and Preclinical Study of a ^68Ga-Labeled Cyclic RGD Peptide as an Early Diagnostic Agent for Overexpressed αvβ3 Integrin Receptors in Non-Small-Cell Lung Cancer” (Contrast Media & Molecular Imaging, 2020)

Columns and labels:
in vitro = in vitro ADME; conditions: human, plasma
Method: The protein binding properties of [^68Ga]Ga-DOTA-E(cRGDfK)2 in blood were investigated by protein precipitation. 1ml of the labeled complex and 3ml of human plasma were mixed and incubated for 1 hour at 37°C. Then, an equal volume of 10% trichloroacetic acid (TCA) was added, and samples were centrifuged at 3,000 rpm for 10 min […]. Precipitate was resuspended in 5% TCA and centrifuged at 3,000 rpm for 10 min. Precipitate and the supernatant fractions were analyzed for radioactivity in a gamma counter. Protein binding of [^68Ga]Ga-DOTA-E(cRGDfK)2 was expressed as the fraction of radioactivity bound to the protein, in percentage of the total radioactivity.

physchem = type: physicochemical; conditions: pH 7.4
Method: In a 5 ml Eppendorf tube, 100 μl of the radiolabelled peptide, 0.99 ml of PBS, pH 7.4, and 1 ml n-octanol were mixed. After intense vortexing for 8 min, the two layers were separated by centrifugation. Then, 500 μl aliquots of aqueous and organic layers were transferred to a new tube, radioactivity was measured in a well-type gamma counter (Delshid Gamma counter, Tehran, Iran), and partition coefficient (log P) values were calculated (n = 3).

A549 tumor = tested on: A549 tumor; parameters: species or system BALB/c mice; conditions: mouse, in vivo
Method: 100 μg of [^68Ga]Ga-DOTA-E(cRGDfK)2 formulated in 100 μL saline was injected via the tail vein of 3 groups of 3 BALB/c mice. At 30, 60, and 90 min postinjection, mice were euthanized using a lethal dose of ketamine/xylazine, and blood was collected from the heart using a preheparinised syringe. Tumor and normal organs were excised, washed, weighed, and the radioactivity of each organ was determined using a well-type gamma counter. The organ uptake was measured as percent of the injected dose per gram of organ tissue (%ID/g). A blocking experiment was performed in the presence of a 500-fold excess of unlabeled DOTA-E(cRGDfK)2 30 min before [^68Ga]Ga-DOTA-E(cRGDfK)2 injection.
6–8 weeks female BALB/c mice (with body weights of 20–25 g) were purchased from Royan Insitute (Amol, Iran). Animals were housed in wire cages under controlled conditions of temperature at 25°C, relative humidity around 50%, and 12/12 h light/dark cycles with food, and water was given ad libitum. 2 × 10^6 cell suspensions of human lung adenocarcinoma A549 in 100 μl PBS were injected subcutaneously in the right dorsal flank of each mouse. Palpable tumor diameter was measured using digital calipers twice weekly. When tumor size reached a mean tumor volume of 50–100 mm^3, animals received a tail vein injection of 740 kBq of [^68Ga]Ga-DOTA-E(cRGDfK)2 in 100 μl normal saline. […]

integrin αvβ3 = conditions: cRGDfK as reference; cited from earlier work
Description: Based on previous studies, multimeric cyclic RGD has higher (20–100 more) αvβ3 binding affinity than its monomeric alternatives. […] Many other works reported higher dissociation constant or lower affinity.

Row | Compound | In vitro protein binding (in vitro; 1 h) | fraction unbound at 1 h (in vitro; In vitro protein binding) | logD (physchem) | Clearance (A549 tumor) | Uptake of radioactivity in the kidney and intestine (A549 tumor) | Kd (integrin αvβ3)
1 | N=C(N)NCCC[C@@H]1NC(=O)[C@H](CCCCNC(=O)CC[C@H](NC(=O)CN2CCN(CC(=O)O)CCN(CC(=O)O)CCN(CC(=O)O)CC2)C(=O)NCCCC[C@@H]2NC(=O)[C@@H](Cc3ccccc3)NC(=O)[C@H](CC(=O)O)NC(=O)CNC(=O)[C@H](CCCNC(=N)N)NC2=O)NC(=O)[C@@H](Cc2ccccc2)NC(=O)[C@H](CC(=O)O)NC(=O)CNC1=O [[^68Ga]Ga-DOTA-E(cRGDfK)2, metal not drawn] | 2.88% | > 0.95 | -3.97 ± 0.13 | fast and via the renal system | moderate uptake | 
2 | cRGDfK |  |  |  |  |  | 1300 nM
